Laboratory results published in the supplement of paper PMC7125110.
± gives the standard error. For some of these results: Fewer inactive variants are shown than the library holds.

B1: glmS ribozyme (parent)
chain: AUAAAAGCGCCAGAACUACAGAAAUGUAGUUGACGAGGAGGAGGUUUAUCGAAUUUUCGGCGGAUGCCUCCAAA

Experiments:
Details in all cases: with glucosamine-6-phosphate
glucosamine-6-phosphate [1] = variants of: B1; test: kcat; higher = faster cleavage; RNA array
Method in brief: (§1)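 Glucosamine-6-phosphate in HEPES/KCl/Mg(OAc)2 buffer, at 40 μM to 10 mM, was flowed over barcoded ribozyme variants transcribed in situ by E. coli RNA polymerase on sequenced MiSeq chips. Tracking was through a hybridised Cy3 probe at 37 °C. kobs, kcat and KM came from exponential decay fits and weighted Michaelis–Menten fits of normalised per-tile medians.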

glucosamine-6-phosphate [2] = variants of: B1; test: self-cleavage kobs at 160 uM GlcN6P; higher = faster cleavage; RNA array
Method in brief: as §1

glucosamine-6-phosphate [3] = variants of: B1; test: self-cleavage kobs at 2500 uM GlcN6P; higher = faster cleavage; RNA array
Method in brief: as §1

glucosamine-6-phosphate [4] = variants of: B1; test: KM; higher = weaker cofactor use; RNA array
Method in brief: as §1

glucosamine-6-phosphate [5] = variants of: B1; test: self-cleavage kobs at 640 uM GlcN6P; higher = faster cleavage; RNA array
Method in brief: as §1

glucosamine-6-phosphate [6] = variants of: B1; test: self-cleavage kobs at 10000 uM GlcN6P; higher = faster cleavage; RNA array
Method in brief: as §1

glucosamine-6-phosphate [7] = variants of: B1; test: self-cleavage kobs at 40 uM GlcN6P; higher = faster cleavage; RNA array
Method in brief: as §1

Row | Variant | kcat (glucosamine-6-phosphate [1]) [s⁻¹] | self-cleavage kobs at 160 uM GlcN6P (glucosamine-6-phosphate [2]) [s⁻¹] | self-cleavage kobs at 2500 uM GlcN6P (glucosamine-6-phosphate [3]) [s⁻¹] | KM (glucosamine-6-phosphate [4]) [µM] | self-cleavage kobs at 640 uM GlcN6P (glucosamine-6-phosphate [5]) [s⁻¹] | self-cleavage kobs at 10000 uM GlcN6P (glucosamine-6-phosphate [6]) [s⁻¹] | self-cleavage kobs at 40 uM GlcN6P (glucosamine-6-phosphate [7]) [s⁻¹]
1 | C50G U56G | 4.44e-05 ± 8.9e-06 | 4.35e-05 ± 1.5e-05 | 5.17e-05 ± 2.1e-05 | – | – | – | –
2 | C16U A64C | 0.000145 ± 2.5e-05 | – | 9.71e-05 ± 1.7e-05 | 2130 ± 970 | 2.44e-05 ± 1.1e-05 | 0.000113 ± 1.6e-05 | –
3 | A14U G41A | 0.000406 ± 0.00011 | – | 0.000422 ± 8.6e-05 | – | 9.05e-05 ± 2e-05 | 0.000317 ± 5e-05 | –
4 | G41U U55G | 0.000303 ± 5.3e-05 | 9.74e-05 ± 2.6e-05 | 0.000419 ± 7.2e-05 | – | 0.000276 ± 3.9e-05 | 0.000252 ± 3.2e-05 | 3.39e-05 ± 1.1e-05
5 | A6U G41A | 1.73e-05 ± 2.5e-06 | < 1e-05 | – | – | < 1e-05 | – | < 1e-05
6 | G35C C70G | < 1e-05 | – | < 1e-05 | – | – | – | –
7 | C50G G60U C61U U69A | 7.69e-05 ± 1.1e-05 | 0.000102 ± 3.2e-05 | 7.43e-05 ± 1e-05 | – | 7.91e-05 ± 2.6e-05 | – | –
8 | C16G G41A | 9.56e-05 ± 1.7e-05 | < 1e-05 | 7.9e-05 ± 1.8e-05 | – | – | 7.96e-05 ± 1.2e-05 | –
9 | C58A C61A C70U | 1.3e-05 ± 1.9e-06 | – | – | – | – | – | –
10 | G32A C58A | 0.00126 ± 0.00024 | 7.42e-05 ± 1.4e-05 | 0.000498 ± 5.6e-05 | 3330 ± 920 | 0.000201 ± 2.2e-05 | 0.00106 ± 0.00016 | –
11 | C11U A39G | 0.00395 ± 0.00067 | 0.00047 ± 9.6e-05 | 0.00192 ± 0.00036 | 1780 ± 480 | 0.00116 ± 0.00026 | 0.00358 ± 0.00044 | 7.9e-05 ± 1.3e-05
12 | A33G A64G | < 1e-05 | – | – | 484 ± 28 | – | < 1e-05 | < 1e-05
13 | U31G A64G | 0.0127 ± 0.0021 | 0.000974 ± 0.00016 | 0.00704 ± 0.0013 | 1620 ± 370 | 0.00368 ± 0.00071 | 0.0116 ± 0.0017 | 0.000372 ± 5.2e-05
14 | G32A A53C | 0.00145 ± 0.00063 | 8.36e-05 ± 1.6e-05 | 0.0004 ± 7.3e-05 | – | 0.000126 ± 1.8e-05 | 0.000944 ± 0.00012 | –
15 | U31C C70A | 6.32e-05 ± 4.7e-06 | 2.96e-05 ± 1.2e-05 | 5.7e-05 ± 1.6e-05 | 135 ± 56 | 5.83e-05 ± 9.7e-06 | 5.89e-05 ± 1.2e-05 | –
16 | G13A C58G | 0.000377 ± 8.6e-05 | – | 0.000101 ± 1.7e-05 | 7150 ± 2500 | 2.8e-05 ± 7.8e-06 | 0.000217 ± 3.4e-05 | –
